Data published in patent US20200407442A1 (WUXI BIOLOGICS IRELAND, published 2020).
One block for each binder: values may come before it.

How the values were obtained:
[1] = molecular target: T1, human LAG-3 protein (SPR analyte) (human, UniProt P18627 30-450); assay: SPR Biacore 8K, antibody captured by anti-human Fc, LAG-3 as analyte
T1 sequence: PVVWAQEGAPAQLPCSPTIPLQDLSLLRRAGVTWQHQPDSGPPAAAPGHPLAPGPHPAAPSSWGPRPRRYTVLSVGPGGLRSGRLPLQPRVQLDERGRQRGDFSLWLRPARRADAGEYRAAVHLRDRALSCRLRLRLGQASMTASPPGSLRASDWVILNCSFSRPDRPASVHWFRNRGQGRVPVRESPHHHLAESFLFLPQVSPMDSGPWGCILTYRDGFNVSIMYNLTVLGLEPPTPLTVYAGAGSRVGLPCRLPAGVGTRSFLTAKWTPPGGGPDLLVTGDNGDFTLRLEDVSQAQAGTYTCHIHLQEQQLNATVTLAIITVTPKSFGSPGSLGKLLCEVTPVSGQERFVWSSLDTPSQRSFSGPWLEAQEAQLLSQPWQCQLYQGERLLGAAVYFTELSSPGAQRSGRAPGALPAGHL
Description: Antibodies were characterized for affinity and binding kinetics to human LAG-3 by SPR assay using Biacore 8K. Goat anti-human Fc was pre-immobilized to a sensor chip (CMS), and anti-LAG-3 antibodies were captured when injected to the chip. Various concentrations of human LAG-3 protein and running buffer were flowed through the sensor chip at a flow rate of 30 μL/min for an association phase of 300 s, followed by 3600 s dissociation. The association and dissociation curve was fit by 1:1 Langmuir binding model using Biacore 8K Evaluation Software.

Variant 2: xPro1.FL-x2 = molecular target: T2, Variant 2: xPro1.FL-x2 (human; mouse); assay: FACS, 1 ug/mL antibody, transfected 293F cells
T2 construct: Chimeric full-length LAG-3 on transfected 293F cells
T2 chain: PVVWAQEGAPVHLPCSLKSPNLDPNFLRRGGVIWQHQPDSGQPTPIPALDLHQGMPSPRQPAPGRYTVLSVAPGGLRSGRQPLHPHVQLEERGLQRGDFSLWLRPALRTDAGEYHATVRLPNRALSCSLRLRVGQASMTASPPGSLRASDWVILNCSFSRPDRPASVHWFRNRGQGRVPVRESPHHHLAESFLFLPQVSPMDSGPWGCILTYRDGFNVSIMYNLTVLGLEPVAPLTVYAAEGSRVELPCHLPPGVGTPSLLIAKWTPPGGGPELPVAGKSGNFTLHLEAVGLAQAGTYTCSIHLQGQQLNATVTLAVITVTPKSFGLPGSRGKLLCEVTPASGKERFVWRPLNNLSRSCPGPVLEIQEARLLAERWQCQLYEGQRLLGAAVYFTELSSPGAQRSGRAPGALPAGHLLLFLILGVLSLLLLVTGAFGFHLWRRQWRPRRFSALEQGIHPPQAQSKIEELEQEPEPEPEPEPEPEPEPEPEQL
Description: The 10 variants were cloned into pcDNA3 vector and used for 293F cell transfection. Briefly, 293F cells were diluted to a density of 1×10⁶ cells/mL with FreeStyle 293F medium and aliquots of 3 mL/well were added to 24-well plate. Transfections were performed using 293fectin reagent (Life Technologies). For each transfection, 3 μg of DNA were diluted in 150 μOpti-MEM I-reduced serum medium (Life Technologies), and then combined with 6μL 293fectin reagent pre-diluted in 150 μL Opti-MEM I reduced serum medium. The DNA/[…] mixture was allowed to stand at 25° C. for 20 min before being added to the culture. The transfected cells were analyzed by flow cytometry at 48 h post-transfection.
Binding of antibodies to chimeric LAG-3 variants or full length human/mouse LAG-3 was analyzed by flow cytometry. Briefly, 1 μg/mL antibodies were incubated with chimeric LAG-3-expressing transfected 293F cells for 1 hour at 4° C., and then incubated with 3 μg/mL goat anti-human IgG Fc R-PE (Jackson) for 40 min at 4° C. Cells were analyzed with flow cytometer.

mFc-tagged LAG-3 protein = molecular target: T3, mFc-tagged LAG-3 protein (human, UniProt P18627 30-450); assay: FACS competition: blocks mFc-tagged LAG-3 binding to MHC-II on Raji cells
T3 construct: also called human LAG-3 ECD with mouse Fc tag
T3 sequence: T1 sequence
Description: Antibodies were serially diluted in 1% BSA-PBS and incubated with mFc-tagged LAG-3 protein at 4° C. for 30 min. The mixture was transferred into the 96-well plates seeded with Raji cells. Goat anti-mouse IgG Fc-PE antibody was used to detect the binding of LAG-3 protein to Raji cells. The MFI was evaluated by flow cytometry and analyzed by the software FlowJo (version 7.6.1).

[2] = molecular target: T4, full-length human LAG-3 on cells (human, UniProt P18627 23-525); assay: FACS affinity on Flp-In-293 cells expressing human LAG-3
T4 construct: Expressed on Flp-In-293, CHO or 293F transfectants; also called hPro1.FL; cell surface human LAG-3
T4 sequence: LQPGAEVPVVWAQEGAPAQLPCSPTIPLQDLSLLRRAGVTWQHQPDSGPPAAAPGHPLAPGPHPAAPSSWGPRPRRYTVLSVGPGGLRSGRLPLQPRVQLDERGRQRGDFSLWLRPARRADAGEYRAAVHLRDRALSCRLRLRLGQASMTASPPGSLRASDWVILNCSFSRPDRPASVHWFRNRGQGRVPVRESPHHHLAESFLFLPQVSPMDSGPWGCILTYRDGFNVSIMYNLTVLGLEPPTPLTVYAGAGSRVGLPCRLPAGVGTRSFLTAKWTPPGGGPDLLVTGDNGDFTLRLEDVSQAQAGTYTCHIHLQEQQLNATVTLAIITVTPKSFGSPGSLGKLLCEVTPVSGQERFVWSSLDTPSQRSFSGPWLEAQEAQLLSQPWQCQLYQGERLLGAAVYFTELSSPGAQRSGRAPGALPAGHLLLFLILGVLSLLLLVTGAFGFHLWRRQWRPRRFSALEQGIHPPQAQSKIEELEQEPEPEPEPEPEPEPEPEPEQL
Description: Antibody binding affinity to cell surface LAG-3 was measured by FACS analysis. Flp-In-293 cells expressing human LAG-3 were transferred in to 96-well U-bottom plates at a density of 5×10⁵ cells/mL. Tested antibodies were serially diluted in wash buffer (1×PBS/1%BSA) and incubated with cells at 4° C. for 1 h. The secondary antibody goat anti-human IgG Fc FITC (3.5 moles FITC per mole IgG) was added and incubated at 4° C. in the dark for 0.5 h. The cells were then washed once and resuspended in 1×PBS/1%BSA, and analyzed by flow cytometry. Fluorescence intensity will be converted to bound molecules/cell based on the quantitative beads (QuantumTM MESF Kits, Bangs Laboratories, Inc.). Affinity was calculated using Graphpad Prism 5.

Kd [1]: 0.0106 nM | koff [1]: 1.11e-05 s⁻¹ | kon [1]: 1.05e+06 M⁻¹ s⁻¹ | MFI (Variant 2: xPro1.FL-x2): 40.6 | PE+ % (Variant 2: xPro1.FL-x2): 0.305% | EC50 (mFc-tagged LAG-3 protein): 0.67 nM | Kd [2]: 0.053 nM
B1: 3.40.19-uAb-IgG4L (antibody, V domains shown)
VH: QLQLQESGPGLVKPSETLSLTCTVSGDSISSTSYYWGWIRQPPGKGLEWIGSFYYSGSTYYNPSLKSRVTISVDTSKNQFSLKLNSVTAADTAVYYCARMQLWSYDVDVWGQGTTVTVSS
VL: QSALTQPASVSGSPGQSITISCTGTSSDVGGYDYVAWYQQHPGKVPKLMIYDVSERPSGVSNRFSGSKSGNTASLTISGLQAEDEADYYCSSYTSTTTLVVFGGGTKLSVL
notes: Fully human antibody from OMT rats; IgG4 lambda by its name; also called 3.40.19-uAb-hIgG4L

Kd [1]: 0.0505 nM | koff [1]: 3.33e-05 s⁻¹ | kon [1]: 660000 M⁻¹ s⁻¹ | MFI (Variant 2: xPro1.FL-x2): 45 | PE+ % (Variant 2: xPro1.FL-x2): 1.77% | EC50 (mFc-tagged LAG-3 protein): 0.8 nM | Kd [2]: 0.16 nM
B2: 1.53.3-uAb-IgG4k (antibody, V domains shown)
VH: QVQLQQWGAGLLKPSETLSLTCGVYGGSFSGYYWSWIRQPPGMGLEWIGEINHRGNTNYNPSLKSRVTISEDTSKNQFSLRLSSVTAADTAVYFCTRGEDYSDYDYYGDFWGQGTLVTVSS
VL: EIVLTQSPATLSLSQGERATLSCRASQSISSYLAWYQQKPGQAPRLLIYAASNRATGIPARFSGSGSGTDFTLTISSLEPEDFAIYYCQQRSNWPLTFGGGTKVEIK
notes: Fully human antibody from OMT rats; IgG4 kappa by its name
